In paper PMC5662698, “Conformation transitions of the polypeptide-binding pocket support an active substrate release from Hsp70s” (Nature Communications, 2017):

B1: DnaJ (natural protein, UniProt P08622 1-376, looked up)
chain: MAKQDYYEILGVSKTAEEREIRKAYKRLAMKYHPDRNQGDKEAEAKFKEIKEAYEVLTDSQKRAAYDQYGHAAFEQGGMGGGGFGGGADFSDIFGDVFGDIFGGGRGRQRAARGADLRYNMELTLEEAVRGVTKEIRIPTLEECDVCHGSGAKPGTQPQTCPTCHGSGQVQMRQGFFAVQQTCPHCQGRGTLIKDPCNKCHGHGRVERSKTLSVKIPAGVDTGDRIRLAGEGEAGEHGAPAGDLYVQVQVKQHPIFEREGNNLYCEVPINFAMAALGGEIEVPTLDGRVKLKVPGETQTGKLFRMRGKGVKSVRGGAQGDLLCRVVVETPVGLNERQKQLLQELQESFGGPTGEHNSPRSKSFFDGVKKFFDDLTR
notes: DnaJ, the Hsp40 partner of DnaK; also called Hsp40 co-chaperone DnaJ; source: E. coli BL21(DE3) Gold, purified (HisTrap, Ulp1, HisTrap, Superdex 200); not shown: Smt3, N-terminal, cleaved; His6 (from the vector pSMT3), N-terminal, cleaved
B2: ERdj3 (natural protein, UniProt Q9UBS4 23-358, looked up)
chain: GRDFYKILGVPRSASIKDIKKAYRKLALQLHPDRNPDDPQAQEKFQDLGAAYEVLSDSEKRKQYDTYGEEGLKDGHQSSHGDIFSHFFGDFGFMFGGTPRQQDRNIPRGSDIIVDLEVTLEEVYAGNFVEVVRNKPVARQAPGKRKCNCRQEMRTTQLGPGRFQMTQEVVCDECPNVKLVNEERTLEVEIEPGVRDGMEYPFIGEGEPHVDGEPGDLRFRIKVVKHPIFERRGDDLYTNVTISLVESLVGFEMDITHLDGHKVHISRDKITRPGAKLWKKGEGLPNFDNNNIKGSLIITFDVDFPKEQLTEEAREGIKQLLKQGSVQKVYNGLQGY
notes: ERdj3, an Hsp40 co-chaperone of BiP in the ER; plasmid a gift of Dr. Linda Hendershot; also called Hsp40 ERdj3; source: M15 E. coli, purified (HisTrap, 2 M urea in the lysis buffer, dialysis)

What was measured:
[1] = biological target: T1, TMR-labeled DnaK (DnaK FRET construct C15A/M404C/T437C labelled with tetramethylrhodamine) (E. coli, UniProt P0A6Y8 1-638, C15A | M404C | T437C, tetramethylrhodamine (TMR, from 5-IATR) on both introduced cysteines (M404C, T437C)); test: other fluorescence titration; quenching of two TMR labels on DnaK (called FRET by the paper); 30 nM TMR-labeled DnaK, 2 mM ATP, buffer C (30 mM Tris-HCl pH 7.5, 25 mM KCl, 3 mM MgCl2, 10% glycerol), room temperature, DnaJ added at indicated concentrations; conditions: both partners purified
T1 construct: DnaK, an E. coli Hsp70, with C15A, M404C, T437C; ATP (2 mM) present in the DnaJ experiments; source: E. coli dnak deletion strain BB205 (plasmid pBB46), purified, labelled with 5-IATR, HiTrap Q, monomer peak used

[2] = biological target: T2, TMR-labeled BiP protein (BiP-C41A/C420A/V429C/T462C labelled with tetramethylrhodamine) (human, UniProt P11021 19-654, C41A | C420A | V429C | T462C, tetramethylrhodamine (TMR, from 5-IATR) on both introduced cysteines (V429C, T462C)); test: other fluorescence titration; quenching of two TMR labels on BiP (called FRET by the paper); 300 nM TMR-labeled BiP, 2 mM ATP, buffer B (30 mM Tris-HCl pH 7.0, 100 mM KCl, 3 mM MgCl2, 3 mM CaCl2, 10% glycerol), room temperature, serial dilutions of ERdj3, one-site binding fit; conditions: both partners purified
T2 construct: human BiP with C41A, C420A, V429C, T462C; ATP (2 mM) present in the ERdj3 experiments; also called TMR-labeled BiP FRET protein; source: E. coli BL21(DE3) Gold, purified, labelled with 5-IATR, HiTrap Q, monomer peak used; not shown: His6, N-terminal, cleaved; Smt3, N-terminal, cleaved
T2 sequence (P11021 19-654 C41A/C420A/V429C/T462C): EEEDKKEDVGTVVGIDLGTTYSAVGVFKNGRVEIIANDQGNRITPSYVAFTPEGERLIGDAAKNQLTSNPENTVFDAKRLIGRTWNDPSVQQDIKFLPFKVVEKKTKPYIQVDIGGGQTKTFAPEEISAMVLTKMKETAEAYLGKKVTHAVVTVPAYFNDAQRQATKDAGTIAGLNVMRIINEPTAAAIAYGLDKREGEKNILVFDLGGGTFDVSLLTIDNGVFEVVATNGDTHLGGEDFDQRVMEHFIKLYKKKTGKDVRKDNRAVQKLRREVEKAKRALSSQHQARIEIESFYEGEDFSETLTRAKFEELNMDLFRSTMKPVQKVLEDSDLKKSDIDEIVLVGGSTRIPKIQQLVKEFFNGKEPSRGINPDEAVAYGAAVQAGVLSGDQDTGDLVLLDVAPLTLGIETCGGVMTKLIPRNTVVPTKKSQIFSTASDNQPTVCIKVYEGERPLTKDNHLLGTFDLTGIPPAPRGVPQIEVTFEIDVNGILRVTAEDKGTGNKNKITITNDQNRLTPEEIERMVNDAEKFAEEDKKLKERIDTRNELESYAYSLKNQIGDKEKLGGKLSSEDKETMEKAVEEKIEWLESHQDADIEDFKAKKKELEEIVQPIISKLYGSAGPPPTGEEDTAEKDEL

| Binder | fold change of the dissociation constant against ERdj3-BiP [1] [times lower] | Kd [2] [nM] |
| --- | --- | --- |
| B1 | ~10 |  |
| B2 |  | 1670 ± 110 |
